# In publication PMC5665649 (eLife, 2017):
# Read-outs that look alike come from different tables or passages of the source.
# T1: GluK2 amino terminal domain (ATD) G215N/M217T, DyLight 488-labeled (UniProt P42260 32-420, G215N | M217T, DyLight 488 (NHS ester-activated), labeling ratios typically 0.9-1.3, sites not stated)
# T1 construct: signal peptide in the construct; GluK2 kainate receptor ATD cDNA with native signal peptide, last residue Lys389; N-linked glycosylation site inserted in the lateral face; Same construct as m3, chemically labeled; also called DL-GluK2; DyLight 488-labeled GluK2; source: HEK cell suspension cultures, transient transfection (PEI), secreted into medium; purified (Ni2+ HiTrap chelating, thrombin …)
# T1 sequence (looked up): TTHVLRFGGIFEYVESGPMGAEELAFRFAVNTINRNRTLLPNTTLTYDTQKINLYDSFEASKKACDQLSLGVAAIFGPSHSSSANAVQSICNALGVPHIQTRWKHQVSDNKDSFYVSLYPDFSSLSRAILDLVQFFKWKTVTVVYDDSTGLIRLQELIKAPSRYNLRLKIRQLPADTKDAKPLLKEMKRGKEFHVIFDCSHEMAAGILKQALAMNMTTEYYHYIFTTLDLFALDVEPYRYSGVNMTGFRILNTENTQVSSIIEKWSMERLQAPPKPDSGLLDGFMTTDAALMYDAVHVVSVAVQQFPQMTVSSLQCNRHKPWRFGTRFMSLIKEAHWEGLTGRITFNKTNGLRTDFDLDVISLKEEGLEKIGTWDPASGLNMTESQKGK
# T2: GluK5 amino terminal domain (ATD), DyLight 488-labeled
# T2 sequence (Q63273 whole entry, species assumed, looked up): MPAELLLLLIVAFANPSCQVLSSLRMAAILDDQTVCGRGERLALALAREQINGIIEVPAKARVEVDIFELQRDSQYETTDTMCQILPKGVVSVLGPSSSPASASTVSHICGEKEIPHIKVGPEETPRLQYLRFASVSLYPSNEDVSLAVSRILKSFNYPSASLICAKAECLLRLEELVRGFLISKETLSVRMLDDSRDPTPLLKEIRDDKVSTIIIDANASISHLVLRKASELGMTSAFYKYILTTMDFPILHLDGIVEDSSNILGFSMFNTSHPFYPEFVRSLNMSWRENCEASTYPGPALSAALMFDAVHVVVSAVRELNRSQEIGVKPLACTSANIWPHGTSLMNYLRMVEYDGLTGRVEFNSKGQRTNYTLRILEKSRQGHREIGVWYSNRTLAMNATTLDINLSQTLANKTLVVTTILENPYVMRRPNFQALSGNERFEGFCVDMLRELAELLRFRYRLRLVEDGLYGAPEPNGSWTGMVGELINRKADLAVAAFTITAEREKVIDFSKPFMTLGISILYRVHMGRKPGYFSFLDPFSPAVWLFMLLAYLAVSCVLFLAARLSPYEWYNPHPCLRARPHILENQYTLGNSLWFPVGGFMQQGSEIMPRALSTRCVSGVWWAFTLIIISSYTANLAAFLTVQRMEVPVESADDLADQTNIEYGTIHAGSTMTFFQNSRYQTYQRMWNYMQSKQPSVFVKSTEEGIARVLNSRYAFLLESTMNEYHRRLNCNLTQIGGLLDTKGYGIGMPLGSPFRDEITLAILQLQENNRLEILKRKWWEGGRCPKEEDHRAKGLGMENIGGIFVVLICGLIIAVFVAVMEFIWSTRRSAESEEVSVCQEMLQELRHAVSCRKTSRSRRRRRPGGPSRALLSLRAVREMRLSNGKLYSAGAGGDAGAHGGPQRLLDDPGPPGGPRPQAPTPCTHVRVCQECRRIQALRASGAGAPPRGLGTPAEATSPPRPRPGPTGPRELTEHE
# B1: GluK2 amino terminal domain (ATD) G215N/M217T, unlabeled (domain or fragment, UniProt P42260 32-420, looked up)
# chain: TTHVLRFGGIFEYVESGPMGAEELAFRFAVNTINRNRTLLPNTTLTYDTQKINLYDSFEASKKACDQLSLGVAAIFGPSHSSSANAVQSICNALGVPHIQTRWKHQVSDNKDSFYVSLYPDFSSLSRAILDLVQFFKWKTVTVVYDDSTGLIRLQELIKAPSRYNLRLKIRQLPADTKDAKPLLKEMKRGKEFHVIFDCSHEMAAGILKQALAMNMTTEYYHYIFTTLDLFALDVEPYRYSGVNMTGFRILNTENTQVSSIIEKWSMERLQAPPKPDSGLLDGFMTTDAALMYDAVHVVSVAVQQFPQMTVSSLQCNRHKPWRFGTRFMSLIKEAHWEGLTGRITFNKTNGLRTDFDLDVISLKEEGLEKIGTWDPASGLNMTESQKGK
# notes: signal peptide in the construct; GluK2 kainate receptor ATD cDNA with native signal peptide, last residue Lys389; N-linked glycosylation site inserted in the lateral face; also called UL GluK2; GluK2 ATD; source: HEK cell suspension cultures, transient transfection (PEI), secreted into medium; purified (Ni2+ HiTrap chelating, thrombin digestion, ion exchange)
# B2: EGFP-GluA1 amino terminal domain fusion protein (domain or fragment, UniProt P19490 19-21, looked up)
# chain: VGANFPNNIQIGGLFPNQQSQEHAAFRFALSQLTEPPKLLPQIDIVNISDSFEMTYRFCSQFSKGVYAIFGFYERRTVNMLTSFCGALHVCFITPSFPVDTSNQFVLQLRPELQEALISIIDHYKWQTFVYIYDADRGLSVLQRVLDTAAEKNWQVTAVNILTTTEEGYRMLFQDLEKKKERLVVVDCESERLNAILGQIVKLEKNGIGYHYILANLGFMDIDLNKFKESGANVTGFQLVNYTDTIPARIMQQWRTSDSRDHTRVDWKRPKYTSALTYDGVKVMAEAFQSLRRQRIDISRRGNAGDCLANPAVPWGQGIDIQRALQQVRFEGLTGNVQFNEKGRRTNYTLHVIEMKHDGIRKIGYWNEDDKFVPAATDAQAGGDNSSVQ
# notes: signal peptide in the construct; GluA1 signal peptide and ATD, residues Met1-Phe21, before SGSG-EGFP; GluA1 AMPA receptor ATD, residues Val17-Gln405, after EGFP-SGSG; The two printed ranges overlap (17-21); also called GluA1 ATD-EGFP; GluA1-EGFP fusion protein; source: Sf9 insect cells, baculovirus (pFastBac1), secreted into medium; purified (Ni2+ HiTrap chelating, thrombin digestion, ion …)
# B3: GluK3 amino terminal domain (ATD) T221N/Y223S, DyLight 488-labeled (domain or fragment, UniProt P42264 32-423, looked up)
# chain: MPHVIRIGGIFEYADGPNAQVMNAEEHAFRFSANIINRNRTLLPNTTLTYDIQRIHFHDSFEATKKACDQLALGVVAIFGPSQGSCTNAVQSICNALEVPHIQLRWKHHPLDNKDTFYVNLYPDYASLSHAILDLVQSLKWRSATVVYDDSTGLIRLQELIMAPSRYNIRLKIRQLPIDSDDSRPLLKEMKRGREFRIIFDCSHTMAAQILKQAMAMGMMNESYHFIFTTLDLYALDLEPYRYSGVNLTGFRILNVDNAHVSAIVEKWSMERLQAAPRAESGLLDGVMMTDAALLYDAVHIVSVCYQRASQMTVNSLQCHRHKPWRFGGRFMNFIKEAQWEGLTGRIVFNKTSGLRTDFDLDIISLKEDGLEKVGVWSPADGLNITEVAKGR
# modifications: DyLight 488 (NHS ester-activated), labeling ratios typically 0.9-1.3, sites not stated
# notes: signal peptide in the construct; GluK3 kainate receptor ATD cDNA with native signal peptide, last residue Arg392; N-linked glycosylation site inserted in the lateral face; also called DL-GluK3; DL GluK3; source: HEK cell suspension cultures, transient transfection (PEI), secreted into medium; purified (Ni2+ HiTrap chelating, thrombin digestion, ion exchange); labeled, Superdex 75
# Tests used:
# [1] = biological target: GluA3 amino terminal domain (ATD), unlabeled; test: AUC; direct Lamm equation fits, done here, of previously reported SV data for GluA2 (Zhao et al., 2013d) and GluA3 (Zhao et al., 2012); homodimer
# [2] = biological target: EGFP-GluA1 amino terminal domain fusion protein (UniProt P19490); test: AUC; FDS-SV titration for hetero-dimerization: constant low concentration (50 pM-1 nM) of the ATD carrying the fluorophore, unlabeled partner from 0.2 nM up to µM; sw isotherm fit with coupled competitive homo- and hetero-dimerization model, homodimer KD fixed; 20 °C, 50,000 rpm, 0.1 mg/mL BSA
# [3] = biological target: EGFP-GluA4 amino terminal domain fusion protein (UniProt P19493); test: as above
# [4] = biological target: GluA2 amino terminal domain (ATD), DyLight 488-labeled; test: as above
# [5] = biological target: GluK5 ATD (Rattus norvegicus) (UniProt Q63273); details: cited from earlier work
# [6] = biological target: GluK1 amino terminal domain (ATD) G213N/M215T, DyLight 488-labeled; test: AUC; fluorescence-detected sedimentation velocity (FDS-SV), tracer titration for self-association: 0.2-1 nM DyLight 488-labeled ATD with a series of the same unlabeled ATD; sw isotherm fit with monomer-dimer model (dimer to monomers); 20 °C, 50,000 rpm, 0.1 mg/mL BSA
# [7] = biological target: GluK2 amino terminal domain (ATD) G215N/M217T, DyLight 488-labeled (UniProt P42260); test: AUC; FDS-SV titration for hetero-dimerization: constant low concentration (50 pM-1 nM) of the ATD carrying the fluorophore, unlabeled partner from 0.2 nM up to µM; sw isotherm fit with coupled competitive homo- and hetero-dimerization model, homodimer KD fixed; 20 °C, 50,000 rpm, 0.1 mg/mL BSA
# [8] = biological target: GluK1 amino terminal domain (ATD) G213N/M215T, DyLight 488-labeled; test: as above
# [9] = biological target: GluK4 amino terminal domain (ATD), unlabeled (UniProt Q01812); test: AUC; sedimentation velocity with absorbance detection at 280 nm, unlabeled GluK4 0.3-29 µM; 20 °C, 50,000 rpm
# [10] = biological target: GluA2 amino terminal domain (ATD), DyLight 488-labeled; test: AUC; direct Lamm equation fits, done here, of previously reported SV data for GluA2 (Zhao et al., 2013d) and GluA3 (Zhao et al., 2012); homodimer
# [11] = biological target: GluA2 amino terminal domain (ATD), DyLight 488-labeled; test: AUC; homodimer KD of GluA2 as given in Table 2 under UL GluA2 and DL-GluA2; the experiment itself is not described in this paper
# [12] = biological target: GluK2 ATD (Rattus norvegicus) (UniProt P42260); details: cited from earlier work
# [13] = biological target: T1, GluK2 amino terminal domain (ATD) …; test: AUC; fluorescence-detected sedimentation velocity (FDS-SV), tracer titration for self-association: 0.2-1 nM DyLight 488-labeled ATD with a series of the same unlabeled ATD; sw isotherm fit with monomer-dimer model (dimer to monomers); 20 °C, 50,000 rpm, 0.1 mg/mL BSA; details: both partners purified
# [14] = biological target: T2, GluK5 amino terminal domain (ATD), DyLight 488-labeled; test: AUC; FDS-SV titration for hetero-dimerization: constant low concentration (50 pM-1 nM) of the ATD carrying the fluorophore, unlabeled partner from 0.2 nM up to µM; sw isotherm fit with coupled competitive homo- and hetero-dimerization model, homodimer KD fixed; 20 °C, 50,000 rpm, 0.1 mg/mL BSA
# [15] = biological target: the molecule itself; test: AUC; FDS-SV, dilution series of the fluorescent protein alone (DyLight 488-GluK3 50 pM-1.2 µM; EGFP-GluA1 100 pM-1.2 µM; EGFP-GluA4 500 pM-1.2 µM); c(s) and sw isotherm, monomer-dimer model (dimer to monomers); 20 °C, 50,000 rpm, 0.1 mg/mL BSA
# [16] = biological target: the molecule itself; test: as above; remark: listed apart in the source
# [17] = biological target: the molecule itself; test: as above; remark: listed apart in the source
# Sequence of EGFP-GluA4 amino terminal domain fusion protein (P19493 21-413): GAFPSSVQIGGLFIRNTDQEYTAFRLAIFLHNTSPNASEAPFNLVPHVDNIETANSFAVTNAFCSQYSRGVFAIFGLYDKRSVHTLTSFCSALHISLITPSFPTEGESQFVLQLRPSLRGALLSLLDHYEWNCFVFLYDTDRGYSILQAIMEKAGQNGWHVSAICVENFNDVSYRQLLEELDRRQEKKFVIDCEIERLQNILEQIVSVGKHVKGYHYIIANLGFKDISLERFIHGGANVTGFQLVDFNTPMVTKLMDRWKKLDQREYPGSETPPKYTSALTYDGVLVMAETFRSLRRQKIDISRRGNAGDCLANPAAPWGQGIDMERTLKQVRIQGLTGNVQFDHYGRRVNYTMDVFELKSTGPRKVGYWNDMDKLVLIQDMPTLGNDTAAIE
molecule,measurement,setting,value
"GluA3 amino terminal domain (ATD), unlabeled (domain or fragment)",koff,[1],> 0.003 s⁻¹
same,Kd,[2],0.0083 µM
same,Kd,[3],0.091 µM
same,Kd,[4],0.0013 µM
GluK5 ATD (from UniProt Q63273),Kd,[5],350 µM
"GluK1 amino terminal domain (ATD) G213N/M215T, unlabeled (domain or fragment)",Kd,[6],1.2 µM
"GluK5 amino terminal domain (ATD), unlabeled (domain or fragment)",Kd,[7],0.012 µM
same,Kd,[8],0.018 µM
"GluK4 amino terminal domain (ATD), unlabeled (from UniProt Q01812 21-399) (domain or fragment)",Kd,[9],> 1000 µM
same,Kd,[7],0.057 µM
same,Kd,[8],0.146 µM
"GluA2 amino terminal domain (ATD), unlabeled (domain or fragment)",koff,[10],> 0.003 s⁻¹
same,kon,[10],> 140000 M⁻¹ s⁻¹
same,Kd,[11],0.0211 µM
same,Kd,[2],0.0029 µM
GluK2 ATD (from UniProt P42260),Kd,[12],0.25 µM
B1,Kd,[13],0.163 µM
same,Kd,[14],0.0094 µM
same,Kd,[8],1.8 µM
B2,Kd,[15],0.0284 µM
B3,stoichiometry N,[16],2
same,Kd,[17],< 0.05 nM
